# Values joined by “and” are separate entries in the source; they are usually repeats but may differ in a detail not shown here. Equal entries are not always repeated.
# B1: Dihydrolipoyllysine-residue succinyltransferase component of 2-oxoglutarate dehydrogenase complex, P0AFG6 (parent)
# chain: MSSVDILVPDLPESVADATVATWHKKPGDAVVRDEVLVEIETDKVVLEVPASADGILDAVLEDEGTTVTSRQILGRLREGNSAGKETSAKSEEKASTPAQRQQASLEEQNNDALSPAIRRLLAEHNLDASAIKGTGVGGRLTREDVEKHLAKAPAKESAPAAAAPAAQPALAARSEKRVPMTRLRKRVAERLLEAKNSTAMLTTFNEVNMKPIMDLRKQYGEAFEKRHGIRLGFMSFYVKAVVEALKRYPEVNASIDGDDVVYHNYFDVSMAVSTPRGLVTPVLRDVDTLGMADIEKKIKELAVKGRDGKLTVEDLTGGNFTITNGGVFGSLMSTPIINPPQSAILGMHAIKDRPMAVNGQVEILPMMYLALSYDHRLIDGRESVGFLVTIKELLEDPTRLLLDV
# Variants of: B1
# Conditions: Escherichia coli (strain K12), pH 7, structure 1W4H, whole UniProt chain shown; for denaturant m value / unfolding free energy: 10 °C, GdnHCl, Fluorescence, 3-[morpholino]propanesulfonic acid 50 mM, NaCl 200 mM; for Tm / ddG of mutation (higher = less stable) / unfolding enthalpy (van 't Hoff): Thermal, CD, Potassium phosphate 50 mM, KCl 200 mM
Variant,denaturant m value,unfolding free energy,Tm,ddG of mutation (higher = less stable),unfolding enthalpy (van 't Hoff)
V146A,0.48 kcal/mol/M and 0.16 kcal/mol/M,0.47 kcal/mol,27.9 °C,2.02 kcal/mol,9 kcal/mol
T135S,,,50.4 °C,0.29 kcal/mol,21 kcal/mol
A151G,,,53.2 °C,0.07 kcal/mol,21 kcal/mol
A117G,,,49.4 °C,0.37 kcal/mol,23 kcal/mol
D145N,0.17 kcal/mol/M,,13.8 °C,3.1 kcal/mol,5 kcal/mol
H149A,,,55 °C,-0.06 kcal/mol,22 kcal/mol
P116A,,,59.1 °C,-0.38 kcal/mol,24 kcal/mol
T142S,0.53 kcal/mol/M and 0.2 kcal/mol/M,1.45 kcal/mol,,,
A113G,,,53.6 °C,0.04 kcal/mol,23 kcal/mol
I118V,,,53.8 °C,0.03 kcal/mol,26 kcal/mol

# — FireProtDB (doi:10.1016/j.jmb.2009.05.011)
